The values that follow come from patent US20180369403A1 (University of Texas, published 2018).

What is called Kd is a measure of binding affinity in units of concentration.

Assay [1] concerns the target T1, human LGR4 (leucine-rich repeat-containing G-protein coupled receptor 4) (human, UniProt Q9BXB1 25-951). Description: cell-based or functional assay.
The target of the next assay is T2, LGR5 (UniProt O75473 22-561, limits assumed).
T2 sequence (looked up): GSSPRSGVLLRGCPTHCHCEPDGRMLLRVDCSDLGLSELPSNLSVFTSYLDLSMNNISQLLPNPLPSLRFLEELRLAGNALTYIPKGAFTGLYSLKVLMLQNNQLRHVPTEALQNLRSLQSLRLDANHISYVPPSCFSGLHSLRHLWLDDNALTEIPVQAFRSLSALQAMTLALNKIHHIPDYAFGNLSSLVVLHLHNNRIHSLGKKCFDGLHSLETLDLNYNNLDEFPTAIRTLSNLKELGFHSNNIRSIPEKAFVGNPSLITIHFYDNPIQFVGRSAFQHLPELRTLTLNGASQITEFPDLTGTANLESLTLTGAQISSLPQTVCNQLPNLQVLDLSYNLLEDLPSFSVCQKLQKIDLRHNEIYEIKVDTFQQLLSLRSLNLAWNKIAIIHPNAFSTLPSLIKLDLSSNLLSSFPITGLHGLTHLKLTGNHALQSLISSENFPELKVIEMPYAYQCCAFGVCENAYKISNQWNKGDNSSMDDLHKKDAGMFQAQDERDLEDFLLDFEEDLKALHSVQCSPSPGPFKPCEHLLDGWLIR
Description: specificity cross check analysis.

The next assay has as its target T3, LGR6 (UniProt Q9HBX8 25-567, limits assumed).
T3 sequence (looked up): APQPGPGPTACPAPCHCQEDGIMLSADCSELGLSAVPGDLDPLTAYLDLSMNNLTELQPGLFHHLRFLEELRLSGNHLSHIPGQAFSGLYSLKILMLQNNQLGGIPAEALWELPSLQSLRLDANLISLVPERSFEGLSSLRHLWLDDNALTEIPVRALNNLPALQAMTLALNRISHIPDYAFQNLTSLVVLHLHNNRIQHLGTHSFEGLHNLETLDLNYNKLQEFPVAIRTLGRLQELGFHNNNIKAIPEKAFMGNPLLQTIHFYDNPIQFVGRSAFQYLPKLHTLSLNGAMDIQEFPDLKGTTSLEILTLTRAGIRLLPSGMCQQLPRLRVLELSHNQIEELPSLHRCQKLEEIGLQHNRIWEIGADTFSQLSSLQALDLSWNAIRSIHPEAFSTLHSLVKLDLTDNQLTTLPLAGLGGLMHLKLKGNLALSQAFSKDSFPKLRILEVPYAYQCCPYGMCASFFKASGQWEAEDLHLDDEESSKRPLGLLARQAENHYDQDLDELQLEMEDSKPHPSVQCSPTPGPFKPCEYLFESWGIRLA
In words: specificity cross check analysis.

In another assay the target is T4, mouse LGR4 (mouse, UniProt A2ARI4 25-951).
T4 construct: whole, on cells; also called native mouse receptor; HEK293-LGR4-mouse
In words: Western blot, lane HEK293-LGR4-mouse. (In general: In western blotting, separated proteins are transferred to a membrane and probed.)

The target in assay [2] is T1, human LGR4 (leucine-rich …). In words: binding to live HEK293 cells stably expressing human LGR4.
Assay [3] has the same target. In words: fluorescence cell binding, HEK293 cells overexpressing LGR4, Alexa-488 anti-rat IgG.

Several values for one entry are separate records, joined by “and”; a condition that tells them apart may be missing. Equal entries are not always repeated.

B1: 8D2-MC-VC-PAB-MMAE (antibody, V domains shown)
VH: QVQLQQSGAELVKPGASVNLSCKTSGYTFSTSYMSWFKQIPGQTIEWVGLIYVGAGGPTYNQKFKGKASLTVDTSSSTAYMDLSSLTAEDSAVYFCARVRGYAMDAWGQGTSVTVSS
VL: DIVLTQSPATLSVTPGESVSLSCRASQDISTSIHWYQQKSNESPRLLIKYASQSISGIPSRFSGGGSGTDFTLTINRVESEDFSVYYCQQSYSLPVTFGSGTKLELKR
modifications: MMAE (auristatin) attached through an MC-VC-PAB (maleimidocaproyl-valine-citrulline-p-aminobenzyloxycarbonyl) linker; sites and chain of attachment not stated
For the molecule B1, in assay [1], the “IC50, cell viability of IGROV1 cells (CelltiterGlo, 4 days)” value was ~0.3 µg/mL; the “IC50, cell viability of OVCAR3 cells (CelltiterGlo, 4 days)” value is ~0.03 µg/mL; the “IC50, cell viability of SKOV3 cells (CelltiterGlo, 4 days)” value was 2.4 µg/mL.

B2: anti-LGR4 monoclonal antibody 8D2 (antibody, V domains shown)
VH: QVQLQQSGAELVKPGASVNLSCKTSGYTFSTSYMSWFKQIPGQTIEWVGLIYVGAGGPTYNQKFKGKASLTVDTSSSTAYMDLSSLTAEDSAVYFCARVRGYAMDAWGQGTSVTVSS
VL: DIVLTQSPATLSVTPGESVSLSCRASQDISTSIHWYQQKSNESPRLLIKYASQSISGIPSRFSGGGSGTDFTLTINRVESEDFSVYYCQQSYSLPVTFGSGTKLELKR
notes: also called mAb 8D2; LGR4-mAb-8D2
Consider B2, for which the binding result is “no binding” in the assay with LGR5, “no binding” in the assay with LGR6 and “binds” with mouse LGR4. The dissociation constant (Kd) is ~0.1 µg/mL and ~0.7 nM in assay [2]; 0.5 µg/mL in assay [3].

B3: anti-LGR4 monoclonal antibody 3G6 (antibody, V domains shown)
VH: QVQLQQSGAELVKPGSSVKISCKASGYTFTSNFMHWIKQQPGNGLEWIGWIYPGDGDTDYNQKFIGKATLTADKSSSTAYMQLSSLTSEDSAVYFCSRSNSGYNWFAYWGQGTLVTVSS
VL: DIVLTQSPPVLSASVGDRVTLSCKASQNINKNLDWYQQKHGEAPKLLIYYTNNLQTGIPSRFSGSGSGTDYTLTIRSLQPEDVATYYCYQYRTGWTFGGGTKLELKR
notes: Rat monoclonal antibody; also called clone 3G6
The molecule B3 registered a dissociation constant Kd in assay [3] of 0.1 µg/mL.
